In PMC4021073, “Breast tumor specific mutation in GATA3 affects physiological mechanisms regulating transcription factor turnover”:

Target: GATA3 DBD wild-type (UniProt P23771-2 261-371)
Assay: EMSA; 0.5-4 uM protein, 30 uM DNA; 28 mM Tris-HCl pH 7.5, 120 mM NaCl, 1 mM DTT, 0.8 mM 2-mercaptoethanol, 4% glycerol, 0.4 uM zinc sulfate; 10 min at 37 C; 10 ul
Details: protein: recombinant; (pET-15b hexahistidine fusion); label: none (ethidium bromide stain); blunt (20 bp; one strand printed)

Sequence of GATA3 DBD wild-type (P23771 260-370): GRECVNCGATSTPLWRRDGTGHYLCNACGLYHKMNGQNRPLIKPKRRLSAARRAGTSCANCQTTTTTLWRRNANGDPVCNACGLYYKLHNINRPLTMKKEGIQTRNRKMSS

B1: GATA+ 20 bp (dsDNA)
DNA 1: AATGTCCATCTGATAAGACG
DNA 2: CGTCTTATCAGATGGACATT
B1: binds.
